# Results: article PMC4652344
# Target: sulfonylurea receptor 1 (Sur1) (mouse (endogenous in lumbar spinal cord))
# Experiment: FRET or BRET; immunoFRET on 7 um cryosections of lumbar spinal cord of pid-30 WT/EAE mice; custom anti-Sur1 and anti-Trpm4 primary antibodies, secondary antibodies conjugated with Cy3 or Cy5; control: omission of one of the two primary antibodies
# Sequence of sulfonylurea receptor 1 (Sur1) (mouse (endogenous in lumbar spinal cord)) (B2RUS7 entry or part of it): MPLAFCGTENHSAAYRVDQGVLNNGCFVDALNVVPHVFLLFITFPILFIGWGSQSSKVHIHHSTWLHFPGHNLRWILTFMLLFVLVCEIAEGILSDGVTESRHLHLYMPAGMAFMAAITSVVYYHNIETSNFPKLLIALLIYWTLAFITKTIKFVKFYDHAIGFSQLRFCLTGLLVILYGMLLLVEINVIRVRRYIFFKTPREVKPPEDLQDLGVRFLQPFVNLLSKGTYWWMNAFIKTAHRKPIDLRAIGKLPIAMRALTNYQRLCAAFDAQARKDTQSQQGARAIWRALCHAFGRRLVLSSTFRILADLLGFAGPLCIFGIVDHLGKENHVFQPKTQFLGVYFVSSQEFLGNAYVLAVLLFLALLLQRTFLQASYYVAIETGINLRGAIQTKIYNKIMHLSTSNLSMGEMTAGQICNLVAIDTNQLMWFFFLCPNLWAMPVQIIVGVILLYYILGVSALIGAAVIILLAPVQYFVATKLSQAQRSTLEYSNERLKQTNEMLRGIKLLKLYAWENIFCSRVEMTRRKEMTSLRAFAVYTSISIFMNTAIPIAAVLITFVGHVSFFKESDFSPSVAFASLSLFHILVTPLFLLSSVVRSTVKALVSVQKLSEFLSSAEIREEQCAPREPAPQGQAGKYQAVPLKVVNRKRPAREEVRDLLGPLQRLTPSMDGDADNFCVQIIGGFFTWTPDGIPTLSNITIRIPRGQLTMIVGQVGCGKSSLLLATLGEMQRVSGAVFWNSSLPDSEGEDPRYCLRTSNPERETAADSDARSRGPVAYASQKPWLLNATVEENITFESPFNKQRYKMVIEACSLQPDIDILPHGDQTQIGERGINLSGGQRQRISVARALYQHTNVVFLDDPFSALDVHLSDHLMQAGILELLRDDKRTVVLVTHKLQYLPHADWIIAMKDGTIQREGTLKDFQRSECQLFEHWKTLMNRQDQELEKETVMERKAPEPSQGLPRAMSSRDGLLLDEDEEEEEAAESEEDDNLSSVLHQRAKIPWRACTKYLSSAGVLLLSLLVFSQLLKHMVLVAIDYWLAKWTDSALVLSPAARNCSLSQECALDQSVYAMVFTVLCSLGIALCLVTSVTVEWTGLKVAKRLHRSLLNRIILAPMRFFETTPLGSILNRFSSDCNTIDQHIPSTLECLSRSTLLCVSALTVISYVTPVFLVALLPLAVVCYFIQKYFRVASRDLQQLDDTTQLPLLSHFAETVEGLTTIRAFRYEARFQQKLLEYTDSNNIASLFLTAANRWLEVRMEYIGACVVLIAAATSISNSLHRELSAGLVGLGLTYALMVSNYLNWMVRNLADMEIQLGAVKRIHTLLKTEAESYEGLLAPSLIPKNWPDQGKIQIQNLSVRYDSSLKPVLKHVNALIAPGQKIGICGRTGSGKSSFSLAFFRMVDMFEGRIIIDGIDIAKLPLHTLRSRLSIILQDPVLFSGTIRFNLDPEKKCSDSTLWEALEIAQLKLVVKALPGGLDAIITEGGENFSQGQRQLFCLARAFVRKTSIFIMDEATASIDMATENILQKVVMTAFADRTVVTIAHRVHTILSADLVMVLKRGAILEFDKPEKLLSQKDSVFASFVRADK
substance,measurement,value
transient receptor potential melastatin 4 (Trpm4) (from UniProt Q7TN37 1-1213) (natural protein),FRET efficiency,10 to 14%
